Results taken from patent US20250122301A1 (IBIO, published 2025).

T1: CD25 on CD25+ cells (SUDHL-1, HEK IL-2 reporter cells, primary human regulatory T cells) (human, UniProt P01589 22-272)
T1 construct: whole, on cells; also called IL-2Ralpha
T1 sequence (looked up): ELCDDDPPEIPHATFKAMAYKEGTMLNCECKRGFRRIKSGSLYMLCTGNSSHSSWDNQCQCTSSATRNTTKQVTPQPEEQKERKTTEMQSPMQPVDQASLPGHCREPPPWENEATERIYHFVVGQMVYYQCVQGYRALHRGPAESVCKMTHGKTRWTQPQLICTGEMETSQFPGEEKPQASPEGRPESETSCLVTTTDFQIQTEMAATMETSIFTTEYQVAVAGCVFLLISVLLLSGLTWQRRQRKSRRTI

T2: full-length CD25 (human CD25, recombinant protein used on biosensors) (human, UniProt P01589 22-213, limits assumed)
T2 construct: Printed only as Human CD25 / full-length CD25; also called CD25 antigen; alpha chain of the IL-2 receptor
T2 sequence (looked up): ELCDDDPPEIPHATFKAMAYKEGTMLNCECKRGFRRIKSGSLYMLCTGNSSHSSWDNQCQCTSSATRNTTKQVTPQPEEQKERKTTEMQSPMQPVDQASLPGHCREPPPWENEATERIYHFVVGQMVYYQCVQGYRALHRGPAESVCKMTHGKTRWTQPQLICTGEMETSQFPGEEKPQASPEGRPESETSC

B1: AH04750 (human IgG1 reformatted) (antibody, V domains shown)
VH: QVQLQQPGAEMAKPGASVKMSCKASGYTSTAYWIHWVKQRPGQGLEWIGYITPSTGYTEYNQKFEDKATLTADKSSNTAYMQLNSLTSEDSAVYYCARGGYFDYWGQGTTVTVSS
VL: DIQMTQTTSSLSASLGDRVTISCRASQDISNYLNWYQQKPDGTVKLLIYYTSRLHSGVPSRFSGSGSGTDYSLTISNLEQEDIATYFCQQGNTLPPTFGGGTKLEMK
B2: AH04734 (human IgG1 reformatted) (antibody, V domains shown)
VH: QVQLQQPAAELARPGASVKMSCKASGYTFTTSTMHWVKQRPGQGLEWIGYINPRSGYTEYNQKFKDKTTLTADKSSSTAYMQLSSLTSEDSAVYYCARHYYFDYWGQGTTVTVSS
VL: DIQMTQSTSSLSASLGDRVTISCRASQDIRNYLNWYQQKPDGTVKLLIYYTSRLHSGVPSRFSGSGSGTDYSLTISNLEQEDIATYFCQQGNTLPPTSGGGTKLEIK
B3: AH05251 (human IgG1 reformatted) (antibody, V domains shown)
VH: EVRLQQSGAELVRSGASVKLSCTASGFNIKDYYIHWVKQRPEQGLEWIGWIDPDNGETEYAPKFQGKATMTADTSSNTAHLQLSSLTSEDTAVYYCTVFWYGNNYAGFAYWGQGTLVTVSS
VL: DVVMTQTPLSLPVNLGDQASISCRSSQSIVHSNGNTYLEWYLQKPGQSPKLLIYKVSNRFSGVPDRFSGSGSGTDFTLKISRVEAEDLGIYYCFQGSHVPPTFGGGTKLEIK
B4: BP003-T2P1D7 (human IgG1 reformatted) (antibody, V domains shown)
VH: QAYLQQSGAELVRSGASVKLSCTASGFNIKDYYIHWVKQRPEQGLEWIGWIDPDNGETEYAPKFQGKATMTADTSSNTAHLQLSSLTSEDTAVYYCTVFWYGNNYAGFAYWGQGTLVTVSA
VL: DVVLTQTPLSLPVSLGDQASISCRSSQSIVHSNGNTYLEWYLQKPGQSPKLLIYKVSNRFSGVPDRFSGSGSGTDFTLKISKVEAEDLGVYYCFQGSHVPPTFGGGTKLEIK
B5: D34 Fab (Fab, V domains shown)
VH: QVQLQQSGAELVRPGVSVKISCKGSGYTFTDYAMHWVKQSHAKSLEWIGVISTYSGDVSYNQKFKGKATMTVDKSSSTAYMELARLTSEDSAIYYCARGVTFDSWGQGTTVTVSS
VL: DIQMTQSPASLSASVGETVTITCRASENSYSYLEWYQQKQGKSPQLLVYNAKTLAEGVPSRFSGSGSGTQFSLKINSLQPEDFGTYYCQHHYGTPYTFGGGTKLEIK
notes: Fab; also called Fab clone D34
B6: AH05268 (human IgG1 reformatted) (antibody, V domains shown)
VH: QVQLQQSGAELVRPGVSLKISCKGSGYTFTDYAMHWVRQSHAKSLEWIGVISTYSGDALYNQKFKGKATMTVDKSSSTAYLELARLTSDDSAIYYCARGVTFDYWGQGTTLTVSS
VL: DVQMTQSPSSMYASLGERVTFTCKASQDINRYLSWFQQKPGKSPKTLIYRANRLVDGVPSRFSGSGSGQNYSLTISSLEYEDMGIYYCLQYDEFPYTFGGGTKLEIK
B7: AH05257 (human IgG1 reformatted) (antibody, V domains shown)
VH: QVQLQQSGAELVRPGVSLKISCKGSGYTFTDYAMHWVRQSHAKSLEWIGVISTYSGDAIYNQKFKGKATMTVDKSSSTAYLELARLTSEDSAIYYCARGVTFDYWGQGTTLTVSA
VL: DIVMTQSTSSLSASLGDRVTISCRASQDISNYLSWYQQKPDGTIKLLIYYTSRLHSGVSSRFSGSGSGTDYSLTISNLEQEDFATYFCQQGHTLPPTFGGGTKLEIK
B8: D34 (human IgG1 reformatted) (antibody, V domains shown)
VH: QVQLQQSGAELVRPGVSVKISCKGSGYTFTDYAMHWVKQSHAKSLEWIGVISTYSGDVSYNQKFKGKATMTVDKSSSTAYMELARLTSEDSAIYYCARGVTFDSWGQGTTVTVSS
VL: DIQMTQSPASLSASVGETVTITCRASENSYSYLEWYQQKQGKSPQLLVYNAKTLAEGVPSRFSGSGSGTQFSLKINSLQPEDFGTYYCQHHYGTPYTFGGGTKLEIK
B9: AH05271 (human IgG1 reformatted) (antibody, V domains shown)
VH: QVQLQQSGAELVRPGVSVKISCKGSGYTFTDYAMHWVKQSHAKSLEWIGVISTYSGDVSYNQKFKGKATMTVDKSSSTAYMELARLTSEDSATYYCARGVTFDSWGQGTTLTVSS
VL: DIQMTQTPASLAASVGETVTITCRASENIYFSLAWYQQKQGKSPQLLIYNANTLEDGVPSRFSGSGSGTQFSMKINNMQPEDTATYFCKQAYDVPWTFGGGTKLEIK
B10: D11 (human IgG1 reformatted) (antibody, V domains shown)
VH: QIQLQQPGAELVRPGVSLKISCKGSGYTFTDYAMHWVRQSHAKSLEWIGVISTYSGDAIYNQKFKGKATMTVDKSSSTAYLELARLTSDDSAIYYCARGVTFDYWGQGTTVTVSS
VL: DIQMTQTTSSLSASLGDRVTITCRASQDISNYLEWYQQKQGKSPQLLVYNAKTLAEGVPSRFSGSGSGTQFSLKINSLQPEDFGSYYCQHHYDTPYTFGGGTKLEIK
B11: AH05258 (human IgG1 reformatted) (antibody, V domains shown)
VH: QIQLQQSGAELVRPGVSVKISCKGSGYTFTDYAMHWVKQSHAKSLEWIGVISTYSGDVSYNQKFKGKATMTVDKSSSTAYMELARLTSEDSAIYYCARGVTFDSWGQGTTLTVSS
VL: DIVMTQSHKFMSTSVGDRVSITCKASQDVSTAVAWYQQKPGQSPKLLIYSASYRYTGVPDRFTGSGSGTDFTFTISSVQAEDLAVYYCQQHYSTPFTFGSGTKLEIK
B12: AH05247 (human IgG1 reformatted) (antibody, V domains shown)
VH: QVQLQQSGADLMKPGASVKMSCRASGYTFSNYWIEWIKQRPGHGLEWIGEILPGSGFTNYNENFKGKATFTADTSSNTTYMLLSSLSSEDSAVYYCARGGTSVVHFDSWGQGTTLTVSS
VL: DIVMTQSQKFMSTSVGDRVSVTCKASQNVGTNVAWYQQKPGQSPKALIYSASYRYSGVPDRFTGSGSGTDFTLTISNVQSEDLAEYFCQQYNSYPLTFGGGTKLEIK
B13: AH04509 (human IgG1 reformatted) (antibody, V domains shown)
VH: QIQLQQSGAELVRPGTSVKMSCKAAGYTFTNYWIGWVKQRPGHGLEWIGDFYPGGDYINYNEKFKGKATLTADTSSSTAYMQLSSLTSEDSAIYYCTSRNFAYWGQGTPVTVSS
VL: DTTVTQSQRFMSTSVGDRVSVTCKASQNVGTNVAWYQQKPGQSPKPLIYSASYRYSGVPDRFTGSGSGTDFTLTINNVQSEDLAEYFCQQYNNSPLTFGGGTKLEIK
notes: also called AH4509
B14: AH05280 (human IgG1 reformatted) (antibody, V domains shown)
VH: EVRLQQSGADLMKPGASVKISCKTSGYTFSNYWTEWIKQRPGHGLEWIGEILPGSGFTNYNENFKGKATFTADTSSNTTYMQLSSLTSEDSAVYYCARGGTSVVHFDYWGQGTSLTVSS
VL: DIVMTQTPKFLLVSAGDRVTITCKASQSVNNDVLWYQQKPGQSPKLLIYYASNRYTGVPDRFTGSGYGTDFTFTISTVQAEDLAVYFCQQAYWSPYTFGGGTKLEIK
B15: AH05249 (human IgG1 reformatted) (antibody, V domains shown)
VH: QVQLQQSGADLMKPGASVKMSCRASGYTFSNYWIEWIKQRPGHGLEWIGEILPGSGFTNYNENFKGKATFTADTSSNTTYMLLSSLSSEDSAVYYCARGGTSVVHFDSWGQGTTLTVSS
VL: DIVMTQTPKFLLVSAGDRVTITCKASQSVNNDVVWYQQKPGQSPKLLIYYASNRYTGVPDRFTGSGYGTDFTFTISTVQAEDLAVYFCQQDYRSPYTFGGGTKLEIK
B16: BP003-T2P1E3 (human IgG1 reformatted) (antibody, V domains shown)
VH: QIQLQQSGAELVRPGTSVKMSCKAAGYTFTNYWIGWVKQRPGHGLEWIGDIHPGGGYTNYNEKFKGKATLTADTSSSTAYMQLSSLTSEDSAIYYCTSRNFAYWGQGTPVTVSS
VL: DIVLTQSQKFMSTSVGDRVSVTCKASQNVGTNVAWYQQKPGQSPKALIYSASYRYSGVPDRFTGSGSGTDFTLTISNVQSEDLAEYFCQQYNSYPYTFGGGTKLEIK
B17: AH05286 (human IgG1 reformatted) (antibody, V domains shown)
VH: QVQLKQSGADLMKPGASVKISCKASGYTFSNYWIEWIKQRPGHGLEWIGEILPGSGYTNYNENFKGKATFTADTSSNTTYIQLSSLSSEDSAVYYCARGGTSFVHFDYWGQGTTLTVSS
VL: DIVLTQSPPTLSLSPGERVTLSCKASQDVNTAVAWYQQKPGQAPRLLIYWASTRHTGVPSRFSGSGSGTDFTLTISSLQPEDFATYYCQQHYSSPWTFGGGTKLEIK
B18: 7G7B6 (antibody, V domains shown)
VH: EVQLVESGGDLVQPRGSLKLSCAASGFTFSSYGMSWVRQTPDKRLELVATINGYGDTTYYPDSVKGRFTISRDNAKNTLYLQMSSLKSEDTAMYFCARDRDYGNSYYYALDYWGQGTSVTVSS
VL: QIVLSQSPAILSASPGERVTMTCRASSSVSFMHWLQQKPGSSPKPWIYATSNLASGVSARFSGSGSGTSYSLTITRVEAEDAATYYCQQWSSNPPAFGGGTKLEIK
B19: AH05214 (human IgG1 reformatted) (antibody, V domains shown)
VH: QIQLQQPGAELVKPGASVKLPCKASGYTFTSYWMHWVKQRPGQGLEWIGEINPSNGRTNYNEKFKSKATLTVDKSSSTAYMQLSSLTSEDSAVYYCARQLAAYWGQGTTVTVSS
VL: DILLTQSPALMAASPGEKVTITCSVSSSISSSNLHWYQQKSETSPKPWIYGTSNLASGVPVRFSGSGSGTSYSLTISSMEAEDAATYYCQQWSSYPLTFGGGTKLEIK

Experiments:
[1] = target: T1, CD25 on CD25+ cells (SUDHL-1, HEK IL-2 …); test: flow cytometry, dose response on CD25+ SUDHL-1 cells;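 further: antibody binding to cells read as median fluorescence intensity of an AF647 anti-human Fc secondary, DAPI+ dead cells excluded, 20 min on ice, 5-fold dilutions from 10 ug/mL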
Experimental: For each cell line, 100,000 cells were plated in a 96 well round bottom plate in cell buffer (PBS+2% HI FBS) and centrifuged. Antibody concentrations from 1-10 ug/mL were used to test the binding of each antibody. Cell were resuspended in 100 uL of antibodies/well and incubated for 20 minutes on ice. After incubation, cells were centrifuged at 300×g for 5 minutes at room temperature, and resuspended and washed with ice cold cell buffer. Cells were then stained with an anti-human Fc secondary antibody conjugated to AF647 (Biolegend) and incubated on ice for 20 min in the dark. Cells were centrifuged, washed and resuspended in cold cell buffer with DAPI and analyzed using flow cytometry (Cytoflex, Becton Dickinson). DAPI+ cell were excluded from analysis. The mean fluorescence intensity was calculated using the median (FlowJo, TreeStar).

[2] = target: T1, CD25 on CD25+ cells (SUDHL-1, HEK IL-2 …); test: cell-based or functional assay
[3] = target: T2, full-length CD25 (human CD25, …); test: Octet BLI, human CD25 on AR2G tip, Fab, pH 6.5
Experimental: For Octet Koff rate screening in raw supernatants, 50 ul of lysate was used in 384-well Pall ForteBio Octet plates. […] Briefly, Human CD25 was coupled to AR2G tips (1 ug/ml). For data collection, baseline was assessed in PBST 1% BSA buffer at pH 6.5 for 60 seconds. Tips were then moved to 50 ul lysate pH6.5 adjusted and association measured for 300 seconds. Finally, tips were moved to PBST 1% BSA buffer at pH 6.5. Tips were then regenerated with 200 mM Tris-Glycine, pH 2.5 and neutralization with PBST, 1% BSA, pH 6.5. For data analysis, Double referencing was performed on Octet HT 11.0 software (no CD25 on tip as well as blank reference well), for reference subtraction.

[4] = target: T2, full-length CD25 (human CD25, …); test: Octet BLI, human CD25 on AR2G tip, Fab, pH 7.4

Binder | EC50 [1] | also measured
B1 | 0.107 µg/mL | 
B2 | 1.91 µg/mL | 
B3 | 0.132 µg/mL | 
B4 | 0.125 µg/mL | 
B5 |  | pSTAT5 IC50 (1 ug/mL) [ng/ml] [2]: 2.56 ng/ml; pSTAT5 IC50 (2 ug/mL) [ng/ml] [2]: 2.35 ng/ml; pSTAT5 IC50 (5 ug/mL) [ng/ml] [2]: 2.27 ng/ml; koff [3]: 0.00296 s⁻¹; koff [4]: 0.00285 s⁻¹
B6 | 0.108 µg/mL | 
B7 | 0.113 µg/mL | 
B8 | 1.1 µg/mL | 
B9 | 0.25 µg/mL | 
B10 | 2.12 µg/mL | 
B11 | 0.184 µg/mL | 
B12 | 0.0977 µg/mL | 
B13 | 0.121 µg/mL | 
B14 | 0.387 µg/mL | 
B15 | 0.897 µg/mL | 
B16 | 0.125 µg/mL | 
B17 | 0.777 µg/mL | 
B18 | 0.903 µg/mL | pSTAT5 IC50 (1 ug/mL) [ng/ml] [2]: 0.963 ng/ml; pSTAT5 IC50 (2 ug/mL) [ng/ml] [2]: 0.906 ng/ml; pSTAT5 IC50 (5 ug/mL) [ng/ml] [2]: 1.47 ng/ml
B19 | ~51.1 µg/mL | 
